Measurements as given in patent US20200079833A1 (AstraZeneca / MedImmune, published 2020).
Starred links: 1 amine or outer side, 2 acyl side, 3 side chain; linkers in the order of their positions; H or OH if unused. Non-standard residues stand in square brackets, D forms with d. Groups on a side chain read outwards from the residue. Primed or numbered codes have the meaning given here. No end group written: not given here. *: point of attachment. γGlu = O=C(O)[C@H](CCC(=O)[*:2])N[*:1]; Stearoyl = CCCCCCCCCCCCCCCCCC(=O)*; αMeF = C[C@](N)(Cc1ccccc1)C(=O)O; αMeK = C[C@](N)(CCCCN)C(=O)O; αMeS = C[C@](N)(CO)C(=O)O; PEG2′ = not defined here; Aib = CC(C)(N)C(=O)O

T1: GLP-1R (INS1e assay) (UniProt P32301 22-463, limits assumed)
T1 sequence (looked up): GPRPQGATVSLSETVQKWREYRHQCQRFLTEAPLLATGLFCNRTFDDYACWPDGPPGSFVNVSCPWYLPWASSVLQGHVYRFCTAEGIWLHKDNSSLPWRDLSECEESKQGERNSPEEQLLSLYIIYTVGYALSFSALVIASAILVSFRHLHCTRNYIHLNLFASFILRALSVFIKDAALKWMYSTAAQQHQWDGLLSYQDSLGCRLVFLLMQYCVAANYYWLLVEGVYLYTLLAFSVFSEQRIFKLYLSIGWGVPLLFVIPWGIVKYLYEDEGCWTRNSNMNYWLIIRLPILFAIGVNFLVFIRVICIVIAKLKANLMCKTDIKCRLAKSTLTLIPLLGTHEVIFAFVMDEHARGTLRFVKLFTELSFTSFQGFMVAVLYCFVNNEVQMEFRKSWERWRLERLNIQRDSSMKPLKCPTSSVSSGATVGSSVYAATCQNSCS

B1: SEQ ID NO 43 (peptide)
peptide: H[Aib]EGS[αMeF]TSDV[αMeS]S[αMeF]LEGEAA[αMeK]E[αMeF]IA[αMeF]VVEGG-NH2
modifications: N-terminus assumed
SMILES: CC[C@H](C)[C@H](NC(=O)[C@](C)(Cc1ccccc1)NC(=O)[C@H](CCC(=O)O)NC(=O)[C@](C)(CCCCN)NC(=O)[C@H](C)NC(=O)[C@H](C)NC(=O)[C@H](CCC(=O)O)NC(=O)CNC(=O)[C@H](CCC(=O)O)NC(=O)[C@H](CC(C)C)NC(=O)[C@](C)(Cc1ccccc1)NC(=O)[C@H](CO)NC(=O)[C@](C)(CO)NC(=O)[C@@H](NC(=O)[C@H](CC(=O)O)NC(=O)[C@H](CO)NC(=O)[C@@H](NC(=O)[C@](C)(Cc1ccccc1)NC(=O)[C@H](CO)NC(=O)CNC(=O)[C@H](CCC(=O)O)NC(=O)C(C)(C)NC(=O)[C@@H](N)Cc1c[nH]cn1)[C@@H](C)O)C(C)C)C(=O)N[C@@H](C)C(=O)N[C@@](C)(Cc1ccccc1)C(=O)N[C@H](C(=O)N[C@H](C(=O)N[C@@H](CCC(=O)O)C(=O)NCC(=O)NCC(N)=O)C(C)C)C(C)C
B2: SEQ ID NO 17 (peptide)
peptide: H[Aib]EGS[αMeF]TSDV[αMeS]S[αMeF]LEGEAA[αMeK]E[αMeF]IA[αMeF]VV[αMeK]GG-NH2
modifications: N-terminus assumed
SMILES: CC[C@H](C)[C@H](NC(=O)[C@](C)(Cc1ccccc1)NC(=O)[C@H](CCC(=O)O)NC(=O)[C@](C)(CCCCN)NC(=O)[C@H](C)NC(=O)[C@H](C)NC(=O)[C@H](CCC(=O)O)NC(=O)CNC(=O)[C@H](CCC(=O)O)NC(=O)[C@H](CC(C)C)NC(=O)[C@](C)(Cc1ccccc1)NC(=O)[C@H](CO)NC(=O)[C@](C)(CO)NC(=O)[C@@H](NC(=O)[C@H](CC(=O)O)NC(=O)[C@H](CO)NC(=O)[C@@H](NC(=O)[C@](C)(Cc1ccccc1)NC(=O)[C@H](CO)NC(=O)CNC(=O)[C@H](CCC(=O)O)NC(=O)C(C)(C)NC(=O)[C@@H](N)Cc1c[nH]cn1)[C@@H](C)O)C(C)C)C(=O)N[C@@H](C)C(=O)N[C@@](C)(Cc1ccccc1)C(=O)N[C@H](C(=O)N[C@H](C(=O)N[C@@](C)(CCCCN)C(=O)NCC(=O)NCC(N)=O)C(C)C)C(C)C
B3: SEQ ID NO 42 (peptide)
peptide: H[Aib]EGS[αMeF]TSDV[αMeS]S[αMeF]LEGEAAEE[αMeF]IA[αMeF]VV[αMeK]GG-NH2
modifications: N-terminus assumed
SMILES: CC[C@H](C)[C@H](NC(=O)[C@](C)(Cc1ccccc1)NC(=O)[C@H](CCC(=O)O)NC(=O)[C@H](CCC(=O)O)NC(=O)[C@H](C)NC(=O)[C@H](C)NC(=O)[C@H](CCC(=O)O)NC(=O)CNC(=O)[C@H](CCC(=O)O)NC(=O)[C@H](CC(C)C)NC(=O)[C@](C)(Cc1ccccc1)NC(=O)[C@H](CO)NC(=O)[C@](C)(CO)NC(=O)[C@@H](NC(=O)[C@H](CC(=O)O)NC(=O)[C@H](CO)NC(=O)[C@@H](NC(=O)[C@](C)(Cc1ccccc1)NC(=O)[C@H](CO)NC(=O)CNC(=O)[C@H](CCC(=O)O)NC(=O)C(C)(C)NC(=O)[C@@H](N)Cc1c[nH]cn1)[C@@H](C)O)C(C)C)C(=O)N[C@@H](C)C(=O)N[C@@](C)(Cc1ccccc1)C(=O)N[C@H](C(=O)N[C@H](C(=O)N[C@@](C)(CCCCN)C(=O)NCC(=O)NCC(N)=O)C(C)C)C(C)C
B4: SEQ ID NO 44 (peptide)
peptide: H[Aib]EGS[αMeF]TSDV[αMeS]S[αMeF]LEGEAAEE[αMeF]IA[αMeF]VVEGG-NH2
modifications: N-terminus assumed
SMILES: CC[C@H](C)[C@H](NC(=O)[C@](C)(Cc1ccccc1)NC(=O)[C@H](CCC(=O)O)NC(=O)[C@H](CCC(=O)O)NC(=O)[C@H](C)NC(=O)[C@H](C)NC(=O)[C@H](CCC(=O)O)NC(=O)CNC(=O)[C@H](CCC(=O)O)NC(=O)[C@H](CC(C)C)NC(=O)[C@](C)(Cc1ccccc1)NC(=O)[C@H](CO)NC(=O)[C@](C)(CO)NC(=O)[C@@H](NC(=O)[C@H](CC(=O)O)NC(=O)[C@H](CO)NC(=O)[C@@H](NC(=O)[C@](C)(Cc1ccccc1)NC(=O)[C@H](CO)NC(=O)CNC(=O)[C@H](CCC(=O)O)NC(=O)C(C)(C)NC(=O)[C@@H](N)Cc1c[nH]cn1)[C@@H](C)O)C(C)C)C(=O)N[C@@H](C)C(=O)N[C@@](C)(Cc1ccccc1)C(=O)N[C@H](C(=O)N[C@H](C(=O)N[C@@H](CCC(=O)O)C(=O)NCC(=O)NCC(N)=O)C(C)C)C(C)C

What follows are binders tested against T1, GLP-1R (INS1e assay) (assay: cell-based or functional assay).

Row | INS1e assay EC50 GLP-1 R n1 [nM] | INS1e assay EC50 GLP-1 R n2 [nM] | INS1e assay EC50 Mean pM GLP-1R [pM] | Binder
1 | 0.00625 | 0.00815 | 7 | H[Aib]EGS[αMeF]TSDV[αMeS]SYLEGEAAK([PEG2′-PEG2′-PEG2′-Stearoyl])E[αMeF]IA[αMeF]VV[αMeK]GG-NH2 [SEQ ID NO 53]
2 | 3.59 | 3.78 | 3680 | H[Aib]EGS[αMeF]TSDV[αMeS]S[αMeF]LEGEAAK([PEG2′-PEG2′-γGlu-Stearoyl])E[αMeF]IA[αMeF]VV[αMeK]GG-NH2 [SEQ ID NO 3]
3 | 22.1 | 42.6 | 32400 | H[Aib]EGS[αMeF]TSDV[αMeS]S[αMeF]LEGEAAK([PEG2′-PEG2′-γGlu-Stearoyl])E[αMeF]IA[αMeF]VVKGG-NH2 [SEQ ID NO 50]
4 | 9.35 | 10.7 | 10000 | H[Aib]EGS[αMeF]TSDV[αMeS]S[αMeF]LEGEAAK([PEG2′-PEG2′-γGlu-Stearoyl])E[αMeF]IAWVV[αMeK]GG-NH2 [SEQ ID NO 49]
5 | 0.016 | 0.0105 | 13 | B1
6 | 0.0214 | 0.0193 | 20 | H[Aib]EGS[αMeF]TSDVSS[αMeF]LEGEAAK([PEG2′-PEG2′-PEG2′-Stearoyl])E[αMeF]IA[αMeF]VV[αMeK]GG-NH2 [SEQ ID NO 52]
7 | 0.0247 | 0.0207 | 23 | H[Aib]EGSFTSDV[αMeS]S[αMeF]LEGEAAK([PEG2′-PEG2′-PEG2′-Stearoyl])E[αMeF]IA[αMeF]VV[αMeK]GG-NH2 [SEQ ID NO 51]
8 | 0.729 | 0.871 | 800 | H[Aib]EGS[αMeF]TSDV[αMeS]S[αMeF]LEGEAAK([PEG2′-PEG2′-γGlu-Stearoyl])EFIA[αMeF]VV[αMeK]GG-NH2 [SEQ ID NO 48]
9 | 0.104 | 0.139 | 122 | HXEGTFTSDVSSYLEGQAAKEFIAWLVKGRK (Aib2; K(ε-(PEG)2-(PEG)2-γE-Stearate) after R30; C-terminal amide) [SEQ ID NO 6]
10 | 0.0125 | 0.0101 | 11 | H[Aib]EGS[αMeF]TSDV[αMeS]S[αMeF]LEGEAAK([PEG2′-PEG2′-PEG2′-Stearoyl])E[αMeF]IAWVV[αMeK]GG-NH2 [SEQ ID NO 55]
11 | 0.0352 | 0.077 | 56 | H[Aib]EGS[αMeF]TSDV[αMeS]S[αMeF]LEGEAAK([PEG2′-PEG2′-PEG2′-Stearoyl])E[αMeF]IA[αMeF]VVKGG-NH2 [SEQ ID NO 56]
12 | 0.00267 | 0.00837 | 6 | H[Aib]EGS[αMeF]TSDV[αMeS]S[αMeF]LEGEAAK([PEG2′-PEG2′-PEG2′-Stearoyl])EFIA[αMeF]VV[αMeK]GG-NH2 [SEQ ID NO 54]
13 | 3.59 | 3.78 | 3680 | H[Aib]EGS[αMeF]TSDV[αMeS]S[αMeF]LEGEAAK([PEG2′-PEG2′-γGlu-Stearoyl])E[αMeF]IA[αMeF]VV[αMeK]GG-NH2 [SEQ ID NO 33]
14 | 0.0051 | 0.00787 | 6 | B2
15 | 0.207 | 0.167 | 187 | B3
16 | 7.13 | 12.2 | 9660 | H[Aib]EGS[αMeF]TSDV[αMeS]SYLEGEAAK([PEG2′-PEG2′-γGlu-Stearoyl])E[αMeF]IA[αMeF]VV[αMeK]GG-NH2 [SEQ ID NO 47]
17 | 52.6 | 83.4 | 68000 | H[Aib]EGS[αMeF]TSDVSS[αMeF]LEGEAAK([PEG2′-PEG2′-γGlu-Stearoyl])E[αMeF]IA[αMeF]VV[αMeK]GG-NH2 [SEQ ID NO 46]
18 | 0.475 | 0.435 | 455 | B4
19 | 76.1 | 113 | 94600 | H[Aib]EGSFTSDV[αMeS]S[αMeF]LEGEAAK([PEG2′-PEG2′-γGlu-Stearoyl])E[αMeF]IA[αMeF]VV[αMeK]GG-NH2 [SEQ ID NO 45]
